assay: soluble on expression in E. coli; label from the status in PepcDB or PDB records

Sequence	soluble on expression in E. coli
SGCIGSRTVGNEVIAVDWKGLKDVDQINMDSTSSLHGSSLHRPSTEQTRTDFSWDGINLSMEDTTSILPKLKRNSNAYGIGALAKSSFSGISRSMKDHVTKPTAMGQGRVAHMIEWQGWGKTPAVQPQHSHESVRRDTDAYSDLSDGEKEARFLAGVMEQFAISEATLMAWSSMDGEDMSVNSTQEPLGCNYSDNYQELMDSQDALAQAPMDGWPHSYVSQGMYCLGSSDAWEASDQSLIASPATGSYLGPAFDDSQPSLHEMGPSQPASGYSALEPPPLLGGDTDWAPGVGAVDLARGPAEEEKRPLAPEEGEDAGCQDLESLSPREDPEMSTTLSRKVSDVTSSGVQSFDEEEGEANN	soluble
SGGLLIASAHFGAYVCGTDIDYNTVHGLGKASRKNQKWRGPDENIRANLRQYGLEKFYLDVLVSDASKPSWRKGTYFDAIITDPPYGIRESTRRSGSQKDIPKGIEKCPESHVPVSLSYHLSDMFFDLLNFAAETLVLGGRLVYWLPVYTPEYTEEMVPWHPCLRLISNCEQKLSSHTARRLITMEKVKEFENRDKYSHLLSDHFLPYQGHNSFREKYFSGVTKRIAKEEKCSHE	not soluble
SGHPPLEFSDCYLDSPDFRERLKCYEQELERTNKFIKDVIKDGNALISAMRNYSSAVQKFSQTLQSFQFDFIGDTLTDDEINIAESFKEFAELLNEVENERMMMVHNASDLLIKPLENFRKEQIGFTKERKKKFEKDGERFYSLLDRHLHLSSKKKESQLQEADLQVDKERHNFFESSLDYVYQIQEVQESKKFNIVEPVLAFLHSLFISNSLTVELTQDFLPYKQQLQLSLQNTRNHFSSTREEMEELKKRMKEAPQTCKLPGQPTIEGYLYTQEKCVWGHRGIHWVSISQELLPLVGCEFWAPLLFIDP	soluble
SGIIKMAIRFDRRAYPPQITPKMCLLEWCRREKLPQPVYETVQRTIDRMFCSVVTVAEQKYQSTLWDKSKKLAEQTAAIVCLRSQGLPEGRLGEESPSLNKRKREAPDQDPGGPR	soluble
SGTNDAEDCCLSVTQKPIPGYIVRNFHYLLIKDGCRVPAVVFTTLRGRQLCAPPDQPWVERIIQRLQRTSAKMKRRSS	soluble
SHPNQNDKIVVGLDIGTTKICAIVGRKNEYGKLEILGIGKAVSEGVIRGMVTNINLTVTAIEKAIKEASDQSGIDIGVVNVGIAGQHIKSSVHHHGINRPGGDEEISVDDVNRLTADMYRTVMPFGN	not soluble
SIPYQEWHSQLQSLYDSQIFHNWALCQDVHLNDEKDGLLLRLIPTRQLQKNTERIENKLLNHIELYLTYSKVYNEPLLLLRIWEEKSIDGIPMTKLMLPTDIESLLDVQGKFQLGLDTIINLEGSVWYSFHPCDTSCIVGDQAEFMSTYLRRWVSIFIFSWLGYEDS	soluble
SISPAQIAEALQGRGWDAEIVTDASMAGQLVDVRPEGILKCVDGRGSDNTRMGGPKMPGGIYAIAHNRGVTSIEGLKQITKEVASKGHLPSVHGDHSSDMLGCGFFKLWVTGRFDDMGYPRPQFDADQGANAVKDAGGIIEMHHGSHTEKVVYINLLANKTLEPNENDQRFIVDGWAADKFGLDVPKFLIAAAATVEMLGGPKNAKIVVP	soluble
SKELKEIKSELLNYTDDTLPAMERVDAIRDDLSHWRRSQFATYTYKDADKIRNKIASNIREREKISKELEAYGSTIWPGEEQQTFQRLMRQWKQYLVTMDQYNESMLAGNKTEALAVLSNSLNDFEAVDSDLNELIRLLKVAMDSNKNHILSSVN	not soluble
SKFDKLNKAYEQIKSDYYQKTDDDKLVDGAIKGMIQSLDDPYSTYMDQEQAKSFDETISASFEGIGAQVEEKDGEILIVSPIKGSPAEKAGIKPRDQIIKVNGKSVKGMNVNEAVALIRGKKGTKVKLELNRAGVGNIDLSIKRDTIPVETVYSEMKDNNIGEIQITSFSETTAKELTDAIDSLEKKGAKGYILDLRGNPGGLMEQAITMSNLFIDKGKNIMQVEYKNGSKEVMKAEKERKVTKPTVVLVNDGTASAAEIMAAALHESSNVPLIGETTFGKGTVQTAKEYDDGSTVKLTVAKWLTADGEWIHKKGIKPQVKAELPDYAKLPYLDADKTYKSGDTGTNVKVAQKMLKALGYKVKVNSMYDQDFVSVVKQFQKKEKLNETGILTGDTTTKLMIELQKKLSDNDTQMEKAIETLKK	not soluble
SKIVKIIGREIIDSRGNPTVEAEVHLEGGFVGMAAAPSGASTGSREALELRDGDKSRFLGKGVTKAVAAVNGPIAQALIGKDAKDQAGIDKIMIDLDGTENKSKFGANAILAVSLANAKAAAAAKGMPLYEHIAELNGTPGKYSMPVPMMNIINGGEHADNNVDIQEFMIQPVGAKTVKEAIRMGSEVFHHLAKVLKAKGMNTAVGDEGGYAPNLGSNAEALAVIAEAVKAAGYELGKDITLAMDCAASEFYKDGKYVLAGEGNKAFTSEEFTHFLEELTKQYPIVSIEDGLDESDWDGFAYQTKVLGDKIQLVGDDLFVTNTKILKEGIEKGIANSILIKFNQIGSLTETLAAIKMAKDAGYTAVISHRSGETEDATIADLAVGTAAGQIKTGSMSRSDRVAKYNQLIRIEEALGEKAPYNGRKEIKGQA	soluble
SLALSSPILKEILIEAPSYAPNSFTFDSTNKGFYTSVQDGRVMKYEGPNSGFVDFAYASPYWNKAFCENSTDAEKRPLCGRTYDISYNLQNNQMYIVDCYYHLSVVGSEGGHATQLATSVDGVPFKWLYAVTVDQRTGIVYFTDVSTLYDDRGVQQIMDTSDKTGRLMKYDPSTKETTLLMKELHVPGGAEVSADSSFVLVAEFLSHQIVKYWLEGPKKGTAEVLVKIPNPGNIKRNADGHFWVSSSEELDGNMHGRVDPKGIKFDEFGNILEVIPLPPPFAGEHFEQIQEHDGLLYIGTLFHGSVGILVYDKKGNSFVSSH	soluble
SLDSIELMAKIHASARWSEAALQILADETRRILKHEAGTRAGEDPEQLHQMRVGIRRLRSALRLFEPALKLPKPARRRSLSPLAAVLGSVRDLDVQMEMLRERYLGALPEGEQQALERLLAHLESLRTQARSAMLRYLDGLDYEQFKSAYTEFLESPKFRRGADESLYHLLPAFLREALSTLWAHPGWEEPDVETMHDLRIAVKRVRYNLEFFLGCYGKAVRSLHGELKRIQEELGIIHDCDVLLGQLHTEPLGPATPWQQPFSRLTALVRNERRNAVRRFRRLKTRLLSEDMRNSLAVWVSWPGTADD	soluble
SLDTEKDCIKAVAAKDGITVIKVKSSNKLLSWHFMRKLFEIFEFYQEPVDMVATSEVGVSLTIDNDKNLPDIVRALSDIGDVTVDKDMVIICIVGDMEWDNVGFEARIINALKGVPVRMISYGGSNYNVSVLVKAEDKKKALIALSNKLFNSRATKA	soluble
SLEIRRSDAPRLVDLVRRAQASVNRLATEREALTTRIDSVHGRSVDTALAAMQRRSAKLAGVAAMNPVHGPGLVVTLQDAQRDANGRFPRDASPDDLVVHQQDIEAVLNALWNAGAEAIQMQDQRIIAMSIARCVGNTLLLNGRTYSPPYTIAAIGDAAAMQAALAAAPLVTLYKQYVVRFGLGYCEEVHPDLQIVGYADPVRMHFAQPAGPLDY	soluble
SLFPHISPCEVRVLMLLYSSKKKIFMGLIPYDQSGFVSAIRQVITTRKQAVGPGGVNSGPVQIVNNKFLAWSGVMEWQEPRPEPNSRSKRWLPSHVYVNQGEILRTEQWPRKLYMQLIPQQLLTTLVPLFRNSRLVQFHFTKDLETLKSLCRIMDNGFAGCVHFSYKASCEIRVLMLLYSSEKKIFIGLIPHDQGNFVNGIRRVIANQQQVLQRNLEQEQQQRGMGG	soluble
SLGLKAAQKTLFPLRSIDDVVRLFAAELGREEPDLVLLSLVLGFVEHFLAVNRVIPTNVPELTFQPSPAPDPPGGLTYFPVADLSIIAALYARFTAQIRGAVDLSLYPREGGVSSRELVKKVSDVIWNSLSRSYFKDRAHIQSLFSFITGWSPVGTKLDSSGVAFAVVGACQALGLRDVHLALSEDHAWVVFGPNGEQTAEVTWHGKGNEDRRGQTVNAGVAERSWLYLKGSYMRCDRKMEVAFMVCAINPSIDLHTDSLELLQLQQKLLWLLYDLGHLERYPMALGNLADLEELEPTPGRPDPLTLYHKGIASAKTYYRDEHIYPYMYLAGYHCRNRNVREALQAWADTATVIQDYNYCREDEEIYKEFFEVANDVIPNLLKEAASLLEAGEERPGEQSQGTQSQGSALQDPECFAHLLRFYDGICKWEEGSPTPVLHVGWATFLVQSLGRFEGQVRQKVRIVSREAEAAEAEEPWGEEAREGRRRGPRRESKPEEPPPPKKPALDKGLGTGQGAVSGPPRKPPGTVAGTARGPEGGSTAQVPAPAASPPPEGPVLTFQSEKMKGMKELLVATKINSSAIKLQLTAQSQVQMKKQKVSTPSDYTLSFLKRQRKG	soluble
SLGVYKARRFSQSTKKLGIHDKVLMAAAEEVMQGIWEADLGSGVIKKRLPLQQGKSGGARTIIFFKSANHVFFYDGWSKSGLSSKGSKEIEDDELAAYKKMANAFLAFSNKQIEDLIETGFLIEVKNER	not soluble
SLKPFQDKNTFFYKSPSYICDSEISVACKKGKKVDFPNQDDFTIIQTNDWILIMVFDGHGPSGHDISNFVHVVLPLLFSYNIEKIYENPVRTMKTLFYMINCYLVNYSYCINNNINPININFIDYNLSGTTCTIILYNFITKKIYSAHTGDSRAVMGKQNPQTNKFSAYNITEDHKPSLKLEKDRILAFGGEVKKLHGDVAYRVFVKDEMYPGLAMSRAIGDITSSFIGVTCEPTIKILDKLEEDKFIIVATDGIWEFISSEECVQMVSKKKKKKVHIAMEEIIKESWRRWARIDTVDDMTLVILYF	not soluble
SLKPIMYNEKRGVSVMDIKLQQTQILKPQLTQELKQAITLLGYNSAELAGYIDELSLENPLIERKETDTPPLSYHKTNKNRMKEQDVSQQIRLTRKTLQDSLKQQAIDMKLSDAEKKIFNYLIYSLDSNGYLKEDIQAAADHVSASLEETEAVLAKLQSLEPAGIGARSLQECILLQLRRLPERNEQAEWIAGAYFELFARKNWKALTLQTGIPLKDIQDIFDMISALDPRPGLRYAHEEPGFYVEPDIFNTVKNGIIQARLNSRSFPDIQLHAHYRPMLSAAGCRDVQQVPF	soluble
SLLPFKENRGLIFLDPPFEVKNEFQKLLEALKKIKLRVLNNTVLIWYPIKDLSLVCDVYHNYKNIGFKETMIIEYELLNSDKNMVKCGLMLINPPNIRGELEKLTEYLSGTLNLKFTYIYL	not soluble
SLLPQAVTQFEELVGMAEALLKGGGTMSTSASTLWRATNNSSPDSFASTCSNSNSNSSSPVSLKPEEEHQTDEKQFQIEKWQIARCNKSKPQKFINDLMQVLYTNEYMATHSLTGAKSSTSRDKAVKPAMNQNEVQEIIGVTKQLFPNTDDVSIRRMIGQKLNNCTKKPNLSKNLNSQDIK	soluble
SLLQLNSPHVHNLFNTPFSAAIMDDVVIGLEVHVQLNRLRTKLFCSCPLNYHQSPPNTHVCPVCLGMPGAMPVINKEAVKAAVKVAMALNAEIQPFTVFDRKNYFYPDLPKGFQISQYDRPLALGGYVTIELDGQEKRIQLKRVHMEEDPGKLSYKGSITTAKYSLIDYNRSGAPLLEIVTEPVMNSPKEARLFLNKLRMILEYLEVFDGDLEGAMRVDANISIRGSGRVEIKNISSFKGVEKALSYEIMRQKNLLQRGRSVVRETRHFDEARNITVSLRSKEEEQDYRYFPEPDLVPVLTEEIVREVEGTLPEMPEEKRERLKRQYGIGDNFAKVLILDVKMADYFEEVAKLVDPKLAASWIVDVLRGELNYRDWSFAKCWEVFKPEEFAKLLKYFEEDRITEKGVVEVIRTKLDEGGEIDAIIQKKGLFAIPKEEIIKFCKEAIEENPKAVEDYLSGKRQALNFLVGQVMKKTRGRADPADTAKLIEEMLS	soluble

— the DeepSol protein solubility set
